In patent publication US20240228660A1 (IP2IPO INNOVATIONS, published 2024):
Where two headings read alike, the source gives them in different places.

Assays:
human native VWF [1] = target: T1, human native VWF (human, UniProt P04275 764-2813); assay: ELISA, native VWF coated at 20 ng/well, semi-log dilution of the mAb from 10 µg/ml, anti-human IgG-HRP/TMB
T1 construct: Multimeric glycoprotein; also called native VWF protein; native VWF (305 kDa)
Protocol: (§1) Purified monoclonal antibodies originally derived from scFvs selected from rabbit immune library were tested for binding towards C1-C6-Fc, VWFAD4-C6, BSA (100 ng/well) and human native VWF (Imperial College, 20 ng/well). […] Protein targets were immobilized overnight on ELISA plates, blocked and incubated with a semi-log dilution series of purified recombinant monoclonal antibodies (starting concentration 10 μg/ml), averages of duplicate values are shown. Antibody binding towards human native VWF, VWFAD4-C6 and BSA were detected with antihuman IgG-HRP or anti-human IgG-HRP and TMB staining. ELISA reactivities towards C1-C6-Fc were performed in a separate ELISA experiment and were detected with anti-human IgGκ-HRP and TMB staining.

human native VWF [2] = target: T1, human native VWF; assay: SPR, Biacore 8K, antibody captured on Protein A, native VWF as analyte (4.4-50 nM), single-cycle kinetics, 1:1 fit; replicate 1
Protocol: (§2) The surface plasmon resonance (SPR) experiments were performed using a Biacore 8K (Cytiva) equipped with a research grade Protein A series S sensor chip. […] Flow cell 1 was left blank to serve as a reference surface. […] The complex was allowed to associate and dissociate for 120 seconds and 7200 seconds respectively. The surfaces were regenerated with 30 see injections of 10 mM glycine-HCl pH1.5.
(§3) Data were collected at a rate of 10 Hz. The data were fit to a simple 1:1 interaction model using the global data analysis option available within the Biacore Insight Evaluation software version 3.0.12.15655.

human native VWF [3] = target: T1, human native VWF; assay: SPR, Biacore 8K, antibody captured on Protein A, native VWF as analyte (4.4-50 nM), single-cycle kinetics, 1:1 fit; replicate 2
Protocol: as §2, §3

human native VWF [4] = target: T1, human native VWF; assay: SPR, Biacore 8K, antibody captured on Protein A, native VWF as analyte (4.4-50 nM), single-cycle kinetics, 1:1 fit; replicate 3
Protocol: as §2, §3

human full-length VWF [5] = target: T2, human full-length VWF (human, UniProt P04275 764-2813); assay: SPR, Biacore T200, antibody captured on Protein A, full-length VWF as analyte, single-cycle kinetics
Protocol: Antibodies were captured on Protein A sensor chip. The system was purged using running buffer (10 mM HEPES pH 7.4, 300 mM NaCl, 3 mM EDTA, 0.05% P20) and a series S Protein A chip was docked in the Biacore T200. The surface was conditioned with 10 mM glycine-HCl pH 1.5 regeneration solution (3 injections). Each antibody was diluted to ˜0.8 μg/ml in running buffer to capture ˜350 RU on flow cells 2, 3 and 4 (flow cell 1 used as in-line reference cell). Single-cycle kinetic analysis of human full-length VWF binding to antibodies was performed using the following parameters:

human native VWF [6] = target: T1, human native VWF; assay: ELISA, native VWF coated at 20 ng/well, semi-log dilution of the mAb from 10 µg/ml, anti-human IgG-HRP/TMB; remark: listed apart in the source
Protocol: as §1

human full-length VWF [7] = target: T2, human full-length VWF; assay: SPR, Biacore T200, antibody captured on Protein A, full-length VWF as analyte, single-cycle kinetics; remark: listed apart in the source

B1: 1-D5 (antibody, human IgG1, V domains shown)
VH: QQQLVESGGRLVTPGTPLTLTCAVSGFSLNNYIMGWVRQAPGKGLEYIGIISTGGSTYYASWAKGRFTISRTSTTMDLKMTSLTTEDTATYFCARGGSSAGAGFNIWGPGTLVTVSS
VL: DIVMTQTPSSVSAAVGDTVTIQCQASQSINSGLAWYQQKPGQPPKRLIYKASTLASGVPSRFRGSGSGTDFTLTISDLECADAATYYCQSYHYISANGATFGGGTEVVVE
notes: Rabbit-derived variable domains expressed as human IgG1; also called clone 1-D5; antibody 1-D5
EC50 (read off the curve) (human native VWF [1]): ~6 ng/mL | Kd (human native VWF [2]): 0.025 nM | Kd (human native VWF [3]): 0.0381 nM | Kd (human native VWF [4]): 0.0641 nM

B2: 3-H9 (antibody, human IgG1, V domains shown)
VH: QSLEESGGRLVTPGTPLTLTCSVSGFSLSNYDMSWVRQAPGKGLEWIGSIHAIGITYYANWAEGRFTISKTSTTVDLKMTSLTTEDTATYFCARGLVDLNMWGPGTLVTVSS
VL: AIKMTQTPSSVSVAVGGTVTINCQSSQSVYSNNLLSWYQQKPGQPPKLLIYDASTLESGVPSRFKGSGSGTQFTLTISGVQCEDAATYYCQGSYYSSGWYNTFGGGTEVVVE
notes: Rabbit-derived variable domains expressed as human IgG1; also called clone 3-H9; antibody 3-H9
Kd (human full-length VWF [5]): 0.0603 nM | EC50 (read off the curve) (human native VWF [6]): ~8 ng/mL | Kd (human native VWF [2]): 0.0487 nM | Kd (human native VWF [3]): 0.084 nM | Kd (human native VWF [4]): 0.025 nM

B3: 1-G5 (antibody, human IgG1, V domains shown)
VH: QSLEESGGRLVTPGTPLTLTCSVSGFSLSSYDMTWVRQAPGKGLEWIGSIHATGITFYANWAKGRFTTSKTSTTVDLKMTSLTTEDTATYFCARGLVDLNMWGPGTLVTVSS
VL: DPVMTQTASSVSAAVGGTVTINCQASQSVYNNNYLSWYQQKPGQPPKLLIYDASTLASGVPSRFSGNGSGTQFTLTISGVQCDDAATYYCQGSYYSGGWDTAFGGGTKVVVK
notes: Rabbit-derived variable domains expressed as human IgG1; also called clone 1-G5
Kd (human full-length VWF [7]): 0.0253 nM | Kd (human native VWF [2]): 0.0549 nM | Kd (human native VWF [3]): 0.079 nM | Kd (human native VWF [4]): 0.123 nM
